“And” between values parts separate entries of the source, which are not always exact repeats. Equal values may be shown once.
Target: the molecule itself
Experiment: CM-transferrin zymography; purified and refolded 6 kDa ZBD (heparin and Triton X-100 present) in sample buffer without dithiothreitol at room temperature, run on a 12.5% SDS-PAGE gel with 0.3 mg/ml CM-transferrin embedded; oligomer size read from the active bands

B1: recombinant rat matrilysin zinc-binding domain (ZBD) (domain or fragment, UniProt P50280 212-267, looked up)
chain: LFVATHELGHSLGLGHSSVPSSVMYPTYQGDHSEDFSLTKDDIAGIQKLYGKRNKL
notes: 212-267, said to correspond to human a.a; 188-247; called a 60-residue fragment; Cloned into the Nde1 and BamH1 sites of PET3a; also called 6 kDa ZBD; 6 kDa MMP-7 ZBD
stoichiometry N: 6 and 8 and 5

— publication PMC3406945, “A smallest 6 kda metalloprotease, mini-matrilysin, in living world: a revolutionary conserved zinc-dependent proteolytic domain- helix-loop-helix catalytic zinc binding domain (ZBD)” (Journal of Biomedical Science, 2012)
